According to US20140087995A1 (published 2014):
Numbered stars: 1 amine (or outer) side, 2 acyl side, 3 side chain; on linkers, the order of the positions; unused ones are H or OH. Bridge positions count the residues as written; N and C are the ends. Side chains are listed from the residue outwards. Ends that are not written are not given here. * marks the point of attachment. C20 diacid = O=C(O)CCCCCCCCCCCCCCCCCCC(=O)*; γGlu = O=C(O)[C@H](CCC(=O)[*:2])N[*:1]; AEEA = NCCOCCOCC(=O)O

T1: human calcitonin receptor (human, UniProt P30988 25-474)
T1 sequence (looked up): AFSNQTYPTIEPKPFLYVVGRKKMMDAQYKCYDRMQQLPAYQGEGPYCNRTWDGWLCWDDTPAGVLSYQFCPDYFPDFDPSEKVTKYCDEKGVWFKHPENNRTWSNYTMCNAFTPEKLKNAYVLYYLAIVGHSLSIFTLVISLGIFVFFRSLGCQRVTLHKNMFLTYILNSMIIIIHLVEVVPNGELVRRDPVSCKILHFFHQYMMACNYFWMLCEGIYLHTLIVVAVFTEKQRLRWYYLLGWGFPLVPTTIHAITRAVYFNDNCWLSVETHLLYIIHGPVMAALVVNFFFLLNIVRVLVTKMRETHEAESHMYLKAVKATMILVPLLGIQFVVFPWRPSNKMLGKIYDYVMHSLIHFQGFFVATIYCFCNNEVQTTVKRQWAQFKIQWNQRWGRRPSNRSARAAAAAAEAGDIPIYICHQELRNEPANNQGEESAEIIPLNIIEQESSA

T2: human amylin receptor (amylin 3(a) receptor: human calcitonin receptor coexpressed with RAMP-3) (human, UniProt P30988 25-474; O60896 24-148)
T2 sequence (looked up) 1: T1 sequence (looked up)
T2 sequence (looked up) 2: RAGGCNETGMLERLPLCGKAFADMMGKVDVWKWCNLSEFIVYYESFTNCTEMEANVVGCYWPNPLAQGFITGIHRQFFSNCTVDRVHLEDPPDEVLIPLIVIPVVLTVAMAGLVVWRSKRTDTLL

B1: N^ε1-[(4S)-4-carboxy-4-(19-carboxynonadecanoylamino)butanoyl]-[Arg17,Pro21,Pro27,His34]-h-amylin (peptide)
peptide: K([γGlu-C20 diacid])CNTATCATQRLANFLRHSSPNFGAIPSSTNVGHNTY-NH2
modifications: disulfide 2-7; N-terminus assumed
SMILES: CC[C@H](C)[C@H](NC(=O)[C@H](C)NC(=O)CNC(=O)[C@H](Cc1ccccc1)NC(=O)[C@H](CC(N)=O)NC(=O)[C@@H]1CCCN1C(=O)[C@H](CO)NC(=O)[C@H](CO)NC(=O)[C@H](Cc1c[nH]cn1)NC(=O)[C@H](CCCNC(=N)N)NC(=O)[C@H](CC(C)C)NC(=O)[C@H](Cc1ccccc1)NC(=O)[C@H](CC(N)=O)NC(=O)[C@H](C)NC(=O)[C@H](CC(C)C)NC(=O)[C@H](CCCNC(=N)N)NC(=O)[C@H](CCC(N)=O)NC(=O)[C@@H](NC(=O)[C@H](C)NC(=O)[C@@H]1CSSC[C@H](NC(=O)[C@@H](N)CCCCNC(=O)CC[C@H](NC(=O)CCCCCCCCCCCCCCCCCCC(=O)O)C(=O)O)C(=O)N[C@@H](CC(N)=O)C(=O)N[C@@H]([C@@H](C)O)C(=O)N[C@@H](C)C(=O)N[C@@H]([C@@H](C)O)C(=O)N1)[C@@H](C)O)C(=O)N1CCC[C@H]1C(=O)N[C@@H](CO)C(=O)N[C@@H](CO)C(=O)N[C@H](C(=O)N[C@@H](CC(N)=O)C(=O)N[C@H](C(=O)NCC(=O)N[C@@H](Cc1c[nH]cn1)C(=O)N[C@@H](CC(N)=O)C(=O)N[C@H](C(=O)N[C@@H](Cc1ccc(O)cc1)C(N)=O)[C@@H](C)O)C(C)C)[C@@H](C)O
notes: also called compound 77
B2: N^ε1-[(4S)-4-carboxy-4-[[(4S)-4-carboxy-4-(19-carboxynonadecanoylamino)butanoyl]amino]butanoyl]-[Arg17,Pro21,Pro27,His34]-h-amylin (peptide)
peptide: K([γGlu-γGlu-C20 diacid])CNTATCATQRLANFLRHSSPNFGAIPSSTNVGHNTY-NH2
modifications: disulfide 2-7; N-terminus assumed
SMILES: CC[C@H](C)[C@H](NC(=O)[C@H](C)NC(=O)CNC(=O)[C@H](Cc1ccccc1)NC(=O)[C@H](CC(N)=O)NC(=O)[C@@H]1CCCN1C(=O)[C@H](CO)NC(=O)[C@H](CO)NC(=O)[C@H](Cc1c[nH]cn1)NC(=O)[C@H](CCCNC(=N)N)NC(=O)[C@H](CC(C)C)NC(=O)[C@H](Cc1ccccc1)NC(=O)[C@H](CC(N)=O)NC(=O)[C@H](C)NC(=O)[C@H](CC(C)C)NC(=O)[C@H](CCCNC(=N)N)NC(=O)[C@H](CCC(N)=O)NC(=O)[C@@H](NC(=O)[C@H](C)NC(=O)[C@@H]1CSSC[C@H](NC(=O)[C@@H](N)CCCCNC(=O)CC[C@H](NC(=O)CC[C@H](NC(=O)CCCCCCCCCCCCCCCCCCC(=O)O)C(=O)O)C(=O)O)C(=O)N[C@@H](CC(N)=O)C(=O)N[C@@H]([C@@H](C)O)C(=O)N[C@@H](C)C(=O)N[C@@H]([C@@H](C)O)C(=O)N1)[C@@H](C)O)C(=O)N1CCC[C@H]1C(=O)N[C@@H](CO)C(=O)N[C@@H](CO)C(=O)N[C@H](C(=O)N[C@@H](CC(N)=O)C(=O)N[C@H](C(=O)NCC(=O)N[C@@H](Cc1c[nH]cn1)C(=O)N[C@@H](CC(N)=O)C(=O)N[C@H](C(=O)N[C@@H](Cc1ccc(O)cc1)C(N)=O)[C@@H](C)O)C(C)C)[C@@H](C)O
notes: also called compound 86
B3: N^ε1-[(4S)-4-carboxy-4-[[(4S)-4-carboxy-4-(19-carboxynonadecanoylamino)butanoyl]amino]butanoyl]-[Glu14,Arg17,Pro21,Pro27,His34,Glu35]-h-amylin (peptide)
peptide: K([γGlu-γGlu-C20 diacid])CNTATCATQRLAEFLRHSSPNFGAIPSSTNVGHETY-NH2
modifications: disulfide 2-7; N-terminus assumed
SMILES: CC[C@H](C)[C@H](NC(=O)[C@H](C)NC(=O)CNC(=O)[C@H](Cc1ccccc1)NC(=O)[C@H](CC(N)=O)NC(=O)[C@@H]1CCCN1C(=O)[C@H](CO)NC(=O)[C@H](CO)NC(=O)[C@H](Cc1c[nH]cn1)NC(=O)[C@H](CCCNC(=N)N)NC(=O)[C@H](CC(C)C)NC(=O)[C@H](Cc1ccccc1)NC(=O)[C@H](CCC(=O)O)NC(=O)[C@H](C)NC(=O)[C@H](CC(C)C)NC(=O)[C@H](CCCNC(=N)N)NC(=O)[C@H](CCC(N)=O)NC(=O)[C@@H](NC(=O)[C@H](C)NC(=O)[C@@H]1CSSC[C@H](NC(=O)[C@@H](N)CCCCNC(=O)CC[C@H](NC(=O)CC[C@H](NC(=O)CCCCCCCCCCCCCCCCCCC(=O)O)C(=O)O)C(=O)O)C(=O)N[C@@H](CC(N)=O)C(=O)N[C@@H]([C@@H](C)O)C(=O)N[C@@H](C)C(=O)N[C@@H]([C@@H](C)O)C(=O)N1)[C@@H](C)O)C(=O)N1CCC[C@H]1C(=O)N[C@@H](CO)C(=O)N[C@@H](CO)C(=O)N[C@H](C(=O)N[C@@H](CC(N)=O)C(=O)N[C@H](C(=O)NCC(=O)N[C@@H](Cc1c[nH]cn1)C(=O)N[C@@H](CCC(=O)O)C(=O)N[C@H](C(=O)N[C@@H](Cc1ccc(O)cc1)C(N)=O)[C@@H](C)O)C(C)C)[C@@H](C)O
B4: N^ε1-[(4S)-4-carboxy-4-[[(4S)-4-carboxy-4-(19-carboxynonadecanoylamino)butanoyl]amino]butanoyl]-[His14,Arg17,Pro21,Pro27]-h-amylin (peptide)
peptide: K([γGlu-γGlu-C20 diacid])CNTATCATQRLAHFLRHSSPNFGAIPSSTNVGSNTY-NH2
modifications: disulfide 2-7; N-terminus assumed
SMILES: CC[C@H](C)[C@H](NC(=O)[C@H](C)NC(=O)CNC(=O)[C@H](Cc1ccccc1)NC(=O)[C@H](CC(N)=O)NC(=O)[C@@H]1CCCN1C(=O)[C@H](CO)NC(=O)[C@H](CO)NC(=O)[C@H](Cc1c[nH]cn1)NC(=O)[C@H](CCCNC(=N)N)NC(=O)[C@H](CC(C)C)NC(=O)[C@H](Cc1ccccc1)NC(=O)[C@H](Cc1c[nH]cn1)NC(=O)[C@H](C)NC(=O)[C@H](CC(C)C)NC(=O)[C@H](CCCNC(=N)N)NC(=O)[C@H](CCC(N)=O)NC(=O)[C@@H](NC(=O)[C@H](C)NC(=O)[C@@H]1CSSC[C@H](NC(=O)[C@@H](N)CCCCNC(=O)CC[C@H](NC(=O)CC[C@H](NC(=O)CCCCCCCCCCCCCCCCCCC(=O)O)C(=O)O)C(=O)O)C(=O)N[C@@H](CC(N)=O)C(=O)N[C@@H]([C@@H](C)O)C(=O)N[C@@H](C)C(=O)N[C@@H]([C@@H](C)O)C(=O)N1)[C@@H](C)O)C(=O)N1CCC[C@H]1C(=O)N[C@@H](CO)C(=O)N[C@@H](CO)C(=O)N[C@H](C(=O)N[C@@H](CC(N)=O)C(=O)N[C@H](C(=O)NCC(=O)N[C@@H](CO)C(=O)N[C@@H](CC(N)=O)C(=O)N[C@H](C(=O)N[C@@H](Cc1ccc(O)cc1)C(N)=O)[C@@H](C)O)C(C)C)[C@@H](C)O
notes: also called compound 92
B5: N^ε1-[(4S)-4-carboxy-4-[[(4S)-4-carboxy-4-(19-carboxynonadecanoylamino)butanoyl]amino]butanoyl]-[Glu14,Arg17,Pro21,Pro27,Pro34,Arg35]-h-amylin (peptide)
peptide: K([γGlu-γGlu-C20 diacid])CNTATCATQRLAEFLRHSSPNFGAIPSSTNVGPRTY-NH2
modifications: disulfide 2-7; N-terminus assumed
SMILES: CC[C@H](C)[C@H](NC(=O)[C@H](C)NC(=O)CNC(=O)[C@H](Cc1ccccc1)NC(=O)[C@H](CC(N)=O)NC(=O)[C@@H]1CCCN1C(=O)[C@H](CO)NC(=O)[C@H](CO)NC(=O)[C@H](Cc1c[nH]cn1)NC(=O)[C@H](CCCNC(=N)N)NC(=O)[C@H](CC(C)C)NC(=O)[C@H](Cc1ccccc1)NC(=O)[C@H](CCC(=O)O)NC(=O)[C@H](C)NC(=O)[C@H](CC(C)C)NC(=O)[C@H](CCCNC(=N)N)NC(=O)[C@H](CCC(N)=O)NC(=O)[C@@H](NC(=O)[C@H](C)NC(=O)[C@@H]1CSSC[C@H](NC(=O)[C@@H](N)CCCCNC(=O)CC[C@H](NC(=O)CC[C@H](NC(=O)CCCCCCCCCCCCCCCCCCC(=O)O)C(=O)O)C(=O)O)C(=O)N[C@@H](CC(N)=O)C(=O)N[C@@H]([C@@H](C)O)C(=O)N[C@@H](C)C(=O)N[C@@H]([C@@H](C)O)C(=O)N1)[C@@H](C)O)C(=O)N1CCC[C@H]1C(=O)N[C@@H](CO)C(=O)N[C@@H](CO)C(=O)N[C@H](C(=O)N[C@@H](CC(N)=O)C(=O)N[C@H](C(=O)NCC(=O)N1CCC[C@H]1C(=O)N[C@@H](CCCNC(=N)N)C(=O)N[C@H](C(=O)N[C@@H](Cc1ccc(O)cc1)C(N)=O)[C@@H](C)O)C(C)C)[C@@H](C)O
notes: also called compound 110
B6: N^ε1-[(4S)-4-carboxy-4-[[(4S)-4-carboxy-4-(19-carboxynonadecanoylamino)butanoyl]amino]butanoyl]-[Glu14,Arg17,Pro21,Pro27,Pro34,His35]-h-amylin (peptide)
peptide: K([γGlu-γGlu-C20 diacid])CNTATCATQRLAEFLRHSSPNFGAIPSSTNVGPHTY-NH2
modifications: disulfide 2-7 (inferred)
B7: N^ε1-[2-[2-[2-(19-carboxynonadecanoylamino)ethoxy]ethoxy]acetyl]-[Arg17,Pro21,Pro27,His34]-h-amylin (peptide)
peptide: K([AEEA-C20 diacid])CNTATCATQRLANFLRHSSPNFGAIPSSTNVGHNTY-NH2
modifications: disulfide 2-7; N-terminus assumed
SMILES: CC[C@H](C)[C@H](NC(=O)[C@H](C)NC(=O)CNC(=O)[C@H](Cc1ccccc1)NC(=O)[C@H](CC(N)=O)NC(=O)[C@@H]1CCCN1C(=O)[C@H](CO)NC(=O)[C@H](CO)NC(=O)[C@H](Cc1c[nH]cn1)NC(=O)[C@H](CCCNC(=N)N)NC(=O)[C@H](CC(C)C)NC(=O)[C@H](Cc1ccccc1)NC(=O)[C@H](CC(N)=O)NC(=O)[C@H](C)NC(=O)[C@H](CC(C)C)NC(=O)[C@H](CCCNC(=N)N)NC(=O)[C@H](CCC(N)=O)NC(=O)[C@@H](NC(=O)[C@H](C)NC(=O)[C@@H]1CSSC[C@H](NC(=O)[C@@H](N)CCCCNC(=O)COCCOCCNC(=O)CCCCCCCCCCCCCCCCCCC(=O)O)C(=O)N[C@@H](CC(N)=O)C(=O)N[C@@H]([C@@H](C)O)C(=O)N[C@@H](C)C(=O)N[C@@H]([C@@H](C)O)C(=O)N1)[C@@H](C)O)C(=O)N1CCC[C@H]1C(=O)N[C@@H](CO)C(=O)N[C@@H](CO)C(=O)N[C@H](C(=O)N[C@@H](CC(N)=O)C(=O)N[C@H](C(=O)NCC(=O)N[C@@H](Cc1c[nH]cn1)C(=O)N[C@@H](CC(N)=O)C(=O)N[C@H](C(=O)N[C@@H](Cc1ccc(O)cc1)C(N)=O)[C@@H](C)O)C(C)C)[C@@H](C)O
notes: also called compound 91

What follows are binders tested against T1, human calcitonin receptor (assay: cell-based or functional assay).

Row | hCTR funct. EC50 (pM) | Ratio hCT/hAmylin funct. | Binder
1 | 5400 | – | B1
2 | 19200 | – | B2
3 | 7050 | 15.8 | B3
4 | 2380 | 28 | B4
5 | 8160 | 29.3 | B5
6 | 2830 | 16.4 | B6
7 | 1480 | 36.9 | B7

What follows are binders tested against T2, human amylin receptor (amylin 3(a) …) (assay: cell-based or functional assay).

Row | hAmylin-R funct. EC50 (pM) | Binder
8 | 145 | B1
9 | 298 | B2
10 | 445 | B3
11 | 85 | B4
12 | 278 | B5
13 | 172 | B6
14 | 40 | B7
